Data: the supplement of paper PMC9732359
± gives the uncertainty stated by the source.

Assay: protein stability index of a GFP-peptide fusion (yeast GPS) (PSI 1-4); higher = more stable; sorted into four equal gates, so the index is relative within each strain
In short: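 Mid-log yeast cultures in leucine-free medium, carrying a pooled plasmid library, were sorted into four equal gates by their GFP/Cherry fluorescence ratio. Each plasmid expressed Cherry along with GFP fused upstream of a tiled 17-residue yeast protein peptide. Plasmids recovered from each gate were PCR-amplified and Illumina-sequenced, with reads assigned to strains by barcodes. The protein stability index was obtained by summing each gate's read frequency weighted by its gate number.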

Sequence	protein stability index (doa10∆)	protein stability index (pdr5∆)	protein stability index (san1∆)	protein stability index (ubr1∆)
NEEATPIPSSETKADGI [RRP6]	3.04 ± 0.053	3.18 ± 0.058	3.04 ± 0.049	3.01 ± 0.04
TVKLYLPEILNVLCVNI [ECM29]	1.46 ± 0.047	1.49 ± 0.045	1.5 ± 0.074	1.42 ± 0.045
AHVFVGTCNGDITTSIM [RPN1]	2.72 ± 0.048	2.78 ± 0.044	2.63 ± 0.047	2.62 ± 0.053
EEGETSRPLKKVKILEQ [SWI3]	3.01 ± 0.11	3.28 ± 0.092	2.86 ± 0.08	3.03 ± 0.053
YSNEPFNTNFDDEFGDL [SNF6]	3.02 ± 0.1	3 ± 0.093	2.99 ± 0.059	3.06 ± 0.042
LFSPEEVRAISVAKIRF [RPO21]	2.17 ± 0.1	2.31 ± 0.088	2.41 ± 0.096	2.39 ± 0.07
VGCIFAELIGLQPIFKG [SSN3]	3.02 ± 0.085	2.42 ± 0.097	3.06 ± 0.04	2.5 ± 0.094
PLGILHIPICVTFSFFN [RRP45]	1.29 ± 0.05	1.26 ± 0.06	1.2 ± 0.096	1.12 ± 0.045
KTFNKIQSQVFESLYNS [BRR2]	1.57 ± 0.061	2.04 ± 0.064	1.25 ± 0.12	1.73 ± 0.054
IEKNVMESIGSDILTAE [RRP4]	2.78 ± 0.092	3.04 ± 0.19	2.95 ± 0.2	
YLINGKRFKRKDNAKIS [SRP68]	1.36 ± 0.075	1.58 ± 0.096	1.75 ± 0.12	1.63 ± 0.049
MSTKAQNPMRDLKIEKL [RPL11B]	3.36 ± 0.16	3.25 ± 0.11	3.46 ± 0.11	3.6 ± 0.23
LAANYLNIKPLLDAGCK [SKP1]	1.83 ± 0.076	2.19 ± 0.081	1.57 ± 0.12	2.23 ± 0.09
RSDLQSKIQEIESIRSC [YIL149C/MLP2]	1.89 ± 0.058	2.79 ± 0.09	2.67 ± 0.099	2.52 ± 0.089
FGQRAVLKFAAHTGATP [RPS0A]	2.18 ± 0.082	2.56 ± 0.07	2.45 ± 0.11	2.61 ± 0.067
APSVPEFIYLTKVLQFA [SNF2]	2.82 ± 0.1	2.5 ± 0.087	1.78 ± 0.12	2.91 ± 0.087
TVKTNDELMVIYISNLV [RPN8]	1.66 ± 0.12	1.5 ± 0.063	1.51 ± 0.15	1.29 ± 0.078
KFGACVAQGIMNAGGRN [RPN2]	3.02 ± 0.14	2.73 ± 0.28	2.52 ± 0.23	2.52 ± 0.13
DGVTHALYPQEARLRNL [RPB2]	3.22 ± 0.27	3.06 ± 0.22	3.23 ± 0.13	
LLGKDNEDDALIYGISD [AAR2]	3.22 ± 0.12	3.14 ± 0.14	3.11 ± 0.1	2.7 ± 0.14
KVRLNASEREELALIEE [PRP8]	3.14 ± 0.17	2.89 ± 0.14	2.98 ± 0.12	

Sequence	protein stability index (doa10∆)	protein stability index (pdr5∆)	protein stability index (san1∆)	protein stability index (ubr1∆)
MGEAQTGANFDDVERGV [REC8]	3.37 ± 0.093	2.98 ± 0.11	3.52 ± 0.17	3.24 ± 0.081
LPSHIISTSDVTRIINS [RPL4A]	2.43 ± 0.033	2.66 ± 0.038	2.41 ± 0.035	2.55 ± 0.029
EAINGFKDETISKKIIG [SIR3]	3.08 ± 0.065	3.19 ± 0.057	2.95 ± 0.082	3.09 ± 0.063
PPTDTNVEESVSKADIL [POP5]	3.21 ± 0.12	3.18 ± 0.12	2.79 ± 0.069	3.05 ± 0.095
VEDALDKDSTKEVASLP [FAS2]	3.15 ± 0.13		3.12 ± 0.12	
VLEKKTRQASDLASSKE [RPN5]	3.38 ± 0.23	3.41 ± 0.15		2.97 ± 0.24
MTQRAIQSAESIKSQKE [SWI3]	2.27 ± 0.12	1.74 ± 0.082	2.5 ± 0.14	1.7 ± 0.13
EEASQLIEYMENDAKKS [NUT1]	2.95 ± 0.081	3.2 ± 0.067	3.15 ± 0.061	3.04 ± 0.048
SGKLRDYQVQGLNWLIS [ISW2]	2.58 ± 0.07	2.71 ± 0.053	2.33 ± 0.065	2.85 ± 0.039
EEAKEEVTEEQAEATEW [RPS0A]	3.48 ± 0.12	3.49 ± 0.1	3.02 ± 0.13	3.64 ± 0.091
GGSNYMSNLPFGLGYGD [RPC31]	2.83 ± 0.28	3.15 ± 0.19		3.16 ± 0.18
SIPPATIETFNEAALVV [RPB5]	3.09 ± 0.18	2.46 ± 0.15	2.02 ± 0.11	3.15 ± 0.13
LWELALAFIPNILALNL [YML031W/NDC1]	2.01 ± 0.069	1.86 ± 0.048	1.85 ± 0.083	1.34 ± 0.061
KKDIKIGTNDLFQVESA [SIR4]	2.62 ± 0.082	3.22 ± 0.066	2.88 ± 0.07	2.33 ± 0.054
RISGLIYEEVRAVLKSF [HHF1]	3.33 ± 0.14	3.13 ± 0.2	3.16 ± 0.11	
LTLDPRYIWRSLKDLSS [RPN3]	2.78 ± 0.14	2.39 ± 0.29	2.82 ± 0.097	
EREQPQENKNIDDENIT [SRB4]	3.5 ± 0.055	3.19 ± 0.071	3.07 ± 0.051	3.65 ± 0.084
IGGSLARIALRHLEKEG [RPS25A]	2.52 ± 0.068	2.5 ± 0.054	1.82 ± 0.082	2.51 ± 0.06
LLTPKSGEPIIAATQDF [RPO31]	2.92 ± 0.16	2.57 ± 0.27		
AEENLKKRIRLPSEERI [YIL149C/MLP2]	2.89 ± 0.081	2.48 ± 0.066	2.61 ± 0.08	3.08 ± 0.044
